# Molecular target: the molecule itself
# Assay: cryo-EM structure
protein,measurement,value
"TRPV3(Y564A) (natural protein, mouse, UniProt Q8K424 1-791, looked up) MNAHSKEMAPLMGKRTTAPGGNPVVLTEKRPADLTPTKKSAHFFLEIEGFEPNPTVTKTSPPIFSKPMDSNIRQCLSGNCDDMDSPQSPQDDVTETPSNPNSPSANLAKEEQRQKKKRLKKRIFAAVSEGCVEELRELLQDLQDLCRRRRGLDVPDFLMHKLTASDTGKTCLMKALLNINPNTKEIVRILLAFAEENDILDRFINAEYTEEAYEGQTALNIAIERRQGDITAVLIAAGADVNAHAKGVFFNPKYQHEGFYFGETPLALAACTNQPEIVQLLMENEQTDITSQDSRGNNILHALVTVAEDFKTQNDFVKRMYDMILLRSGNWELETMRNNDGLTPLQLAAKMGKAEILKYILSREIKEKPLRSLSRKFTDWAYGPVSSSLYDLTNVDTTTDNSVLEIIVYNTNIDNRHEMLTLEPLHTLLHTKWKKFAKYMFFLSFCFYFFYNITLTLVSYYRPREDEDLPHPLALTHKMSWLQLLGRMFVLIWATCISVKEGIAIFLLRPSDLQSILSDAWFHFVFFVQAVLVILSVFLYLFAYKEYLACLVLAMALGWANMLAYTRGFQSMGMYSVMIQKVILHDVLKFLFVYILFLLGFGVALASLIEKCSKDKKDCSSYGSFSDAVLELFKLTIGLGDLNIQQNSTYPILFLFLLITYVILTFVLLLNMLIALMGETVENVSKESERIWRLQRARTILEFEKMLPEWLRSRFRMGELCKVADEDFRLCLRINEVKWTEWKTHVSFLNEDPGPIRRTADLNKIQDSSRSNSKTTLYAFDELDEFPETSV",binding result,binds

# Reference: publication PMC6128766 (Nature structural & molecular biology, 2018)
